Test results from paper doi:10.1101/2024.10.04.616518 (2024).

Experiments:
[1] = target: bovine pancreatic chymotrypsin (bovine); test: apparent Ki, Morrison fit, 25 nM chymotrypsin
[2] = target: bovine pancreatic chymotrypsin (bovine); test: apparent Ki, intercept of IC50 vs chymotrypsin concentration

B1: ixochymostatin (natural protein)
chain: ANTGIEWPPKPQKCAEGETWKECVGSSCAELTCEHPEPSLGCTYDCNYGCYCAPDFFRNANKECVKKDKCP
[1]
  Ki: 0.99 nM
[2]
  Ki: 16.5 nM
